± gives the standard deviation of the averaged measurements.
Test: total protein half-life in vivo (active degradation + dilution); higher = more stable protein
[1] = E. coli NCM3722 delta-clpP delta-lon delta-hslV, growth: N-lim chemostat, doubling time 6 h
[2] = E. coli NCM3722 delta-clpP, growth: N-lim chemostat, doubling time 6 h
[3] = E. coli NCM3722 delta-hslV, growth: N-lim chemostat, doubling time 6 h
[4] = E. coli NCM3722 delta-lon, growth: N-lim chemostat, doubling time 6 h
[5] = E. coli NCM3722 delta-smpB, growth: N-lim chemostat, doubling time 6 h
[6] = wild type E. coli NCM3722, growth: C-lim chemostat, doubling time 3 h
[7] = wild type E. coli NCM3722, growth: C-lim chemostat, doubling time 6 h
[8] = wild type E. coli NCM3722, growth: C-lim chemostat, doubling time 12 h
[9] = wild type E. coli NCM3722, growth: N-lim chemostat, doubling time 6 h
[10] = wild type E. coli NCM3722, growth: N-lim chemostat, doubling time 12 h
[11] = wild type E. coli NCM3722, growth: P-lim chemostat, doubling time 6 h
[12] = wild type E. coli NCM3722, growth: P-lim chemostat, doubling time 12 h

Row | Sequence | total protein half-life in vivo [1] [h] | total protein half-life in vivo [2] [h] | total protein half-life in vivo [3] [h] | total protein half-life in vivo [4] [h] | total protein half-life in vivo [5] [h] | total protein half-life in vivo [6] [h] | total protein half-life in vivo [7] [h] | total protein half-life in vivo [8] [h] | total protein half-life in vivo [9] [h] | total protein half-life in vivo [10] [h] | total protein half-life in vivo [11] [h] | total protein half-life in vivo [12] [h]
1 | MQQRRPVRRALLSVSDKAGIVEFAQALSARGVELLSTGGTARLLAEKGLPVTEVSDYTGFPEMMDGRVKTLHPKVHGGILGRRGQDDAIMEEHQIQPIDMVVVNLYPFAQTVAREGCSLEDAVENIDIGGPTMVRSAAKNHKDVAIVVKSSDYDAIIKEMDDNEGSLTLATRFDLAIKAFEHTAAYDSMIANYFGSMVPAYHGESKEAAGRFPRTLNLNFIKKLDMRYGENSHQQAAFYIEENVKEASVATATQVQGKALSYNNIADTDAALECVKEFAEPACVIVKHANPCGVAIGNSILDAYDRAYKTDPTSAFGGIIAFNRELDAETAQAIISRQFVEVIIAPSASEEALKITAAKQNVRVLTCGQWGERVPGLDFKRVNGGLLVQDRDLGMVGAEELRVVTKRQPSEQELRDALFCWKVAKFVKSNAIVYAKNNMTIGIGAGQMSRVYSAKIAGIKAADEGLEVKGSSMASDAFFPFRDGIDAAAAAGVTCVIQPGGSIRDDEVIAAADEHGIAMLFTDMRHFRH | 5.11 ± 0.42 | 4.51 ± 0.51 | 4.73 ± 0.56 | 4.99 ± 0.032 | 4.41 ± 0.28 | 3.19 ± 0.3 | 5.88 ± 0.38 | 9.3 ± 0.86 | 4.36 ± 0.22 | 6.9 ± 0.074 | 5.961 ± 0.037 | 11.9 ± 0.6
2 | MQQQKPLEGAQLVIMTIALSLATFMQVLDSTIANVAIPTIAGNLGSSLSQGTWVITSFGVANAISIPLTGWLAKRVGEVKLFLWSTIAFAIASWACGVSSSLNMLIFFRVIQGIVAGPLIPLSQSLLLNNYPPAKRSIALALWSMTVIVAPICGPILGGYISDNYHWGWIFFINVPIGVAVVLMTLQTLRGRETRTERRRIDAVGLALLVIGIGSLQIMLDRGKELDWFSSQEIIILTVVAVVAICFLIVWELTDDNPIVDLSLFKSRNFTIGCLCISLAYMLYFGAIVLLPQLLQEVYGYTATWAGLASAPVGIIPVILSPIIGRFAHKLDMRRLVTFSFIMYAVCFYWRAYTFEPGMDFGASAWPQFIQGFAVACFFMPLTTITLSGLPPERLAAASSLSNFTRTLAGSIGTSITTTMWTNRESMHHAQLTESVNPFNPNAQAMYSQLEGLGMTQQQASGWIAQQITNQGLIISANEIFWMSAGIFLVLLGLVWFAKPPFGAGGGGGGAH [P0AEJ0] | 7.36 | 6.64 ± 0.3 | 6.52 ± 0.46 | 5.94 | 5.55 ± 0.64 | 3.78 |  | > 16 |  |  | 5.89 | 10.4 ± 0.82
3 | MSAFKKSLLVAGVAMILSNNVFADEGHGIVKFKGEVISAPCSIKPGDEDLTVNLGEVADTVLKSDQKSLAEPFTIHLQDCMLSQGGTTYSKAKVTFTTANTMTGQSDLLKNTKETEIGGATGVGVRILDSQSGEVTLGTPVVITFNNTNSYQELNFKARMESPSKDATPGNVYAQADYKIAYE | 5.72 | 5.47 | 5.25 |  | 3.96 ± 0.24 | 1.78 |  |  |  |  |  | 
4 | MTTLTLVLTAVGSVLLLLFLVMKARMHAFLALMVVSMGAGLFSGMPLDKIAATMEKGMGGTLGFLAVVVALGAMFGKILHETGAVDQIAVKMLKSFGHSRAHYAIGLAGLVCALPLFFEVAIVLLISVAFSMARHTGTNLVKLVIPLFAGVAAAAAFLVPGPAPMLLASQMNADFGWMILIGLCAAIPGMIIAGPLWGNFISRYVELHIPDDISEPHLGEGKMPSFGFSLSLILLPLVLVGLKTIAARFVPEGSTAYEWFEFIGHPFTAILVACLVAIYGLAMRQGMPKDKVMEICGHALQPAGIILLVIGAGGVFKQVLVDSGVGPALGEALTGMGLPIAITCFVLAAAVRIIQGSATVACLTAVGLVMPVIEQLNYSGAQMAALSICIAGGSIVVSHVNDAGFWLFGKFTGATEAETLKTWTMMETILGTVGAIVGMIAFQLLS [P0AC96] |  | 6.49 | 5.93 |  |  |  |  |  | 5.18 |  |  | 12.9
5 | MEYQHWLREAISQLQASESPRRDAEILLEHVTGRGRTFILAFGETQLTDEQCQQLDALLTRRRDGEPIAHLTGVREFWSLPLFVSPATLIPRPDTECLVEQALARLPEQPCRILDLGTGTGAIALALASERPDCEIIAVDRMPDAVSLAQRNAQHLAIKNIHILQSDWFSALAGQQFAMIVSNPPYIDEQDPHLQQGDVRFEPLTALVAADSGMADIVHIIEQSRNALVSGGFLLLEHGWQQGEAVRQAFILAGYHDVETCRDYGDNERVTLGRYYQ [P0ACC1] | 4.72 ± 1.1 | 3.88 | 3.35 | 4.15 ± 0.14 | 3.23 |  | 5.5 ± 0.85 | 9.85 |  | 5.79 ± 0.26 | 5.35 ± 0.41 | 9.69 ± 0.87
6 | MLEILYQDEWLVAVNKPSGWLVHRSWLDRDEKVVVMQTVRDQIGQHVFTAHRLDRPTSGVLLMGLSSEAGRLLAQQFEQHQIQKRYHAIVRGWLMEEAVLDYPLVEELDKIADKFAREDKGPQPAVTHYRGLATVEMPVATGRYPTTRYGLVELEPKTGRKHQLRRHLAHLRHPIIGDSKHGDLRQNRSGAEHFGLQRLMLHASQLSLTHPFTGEPLTIHAGLDDTWMQALSQFGWRGLLPENERVEFSAPSGQDGEISS [P0AA41] | 4.78 ± 0.18 | 4.49 ± 0.16 | 4.87 ± 0.88 | 4.49 | 4.34 ± 0.19 | 3 ± 0.28 |  | 11.8 ± 0.17 | 5.27 ± 1.3 | 6.98 | 5.28 ± 0.23 | 10.91 ± 0.044
7 | MKTLFSRLITVIACFFIFSAAWFCLWSISLHLVERPDMAVLLFPFGLRLGLMLQCPRGYWPVLLGAEWLLIYWLTQAVGLTHFPLLMIGSLLTLLPVALISRYRHQRDWRTLLLQGAALTAAALLQSLPWLWHGKESWNALLLTLTGGLTLAPICLVFWHYLANNTWLPLGPSLVSQPINWRGRHLVWYLLLFVISLWLQLGLPDELSRFTPFCLALPIIALAWHYGWQGALIATLMNAIALIASQTWRDHPVDLLLSLLVQSLTGLLLGAGIQRLRELNQSLQKELARNQHLAERLLETEESVRRDVARELHDDIGQTITAIRTQAGIVQRLAADNASVKQSGQLIEQLSLGVYDAVRRLLGRLRPRQLDDLTLEQAIRSLMREMELEGRGIVSHLEWRIDESALSENQRVTLFRVCQEGLNNIVKHADASAVTLQGWQQDERLMLVIEDDGSGLPPGSGQQGFGLTGMRERVTALGGTLHISCLHGTRVSVSLPQRYV | 5.18 ± 1.4 | 5.44 ± 0.69 | 6.91 | 6.14 ± 0.34 | 5.72 ± 0.14 | 2.75 ± 0.13 | 4.79 ± 0.62 | 10 ± 2.2 | 6.09 ± 0.24 |  | 6.19 | 
8 | MTSGLERLSNLLSKKDSVFVSDLLREAKVNELDETLSTTRLNHLIDKGYERITLQLDLGGESPGYLEKDKHYREADAALLNVIYPTNLSKINTRRKEQV | 4.54 |  |  |  |  |  |  |  |  |  |  | 
